This is an account of results in the nanobody polyreactivity screen of Harvey et al. (2022).

This data set can be described thus: yeast display, Sf9 membrane polyspecificity reagent, FACS + sequencing; frameworks hold sequencing errors. An outline of the steps: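 Using colony PCR, genes from sorted yeast display clones were amplified, then sequenced on MiSeq at 2 × 250 and filtered by CDR length. The clones had been stained with 10% biotinylated, detergent-solubilized Sf9 membrane reagent for 1 hour at 4 °C and sorted by FACS into low and high (top ~1%) gates on anti-HA and streptavidin fluorescence. Polyreactivity labels come from the gate of origin.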
“QVQIVESGGGLVQAAGSLRLSCPASGRIFSDYAMGWYRQAPGKERELVAVITRGGDNTHYADSVKGRFTISRDNAKNTVYFQMNSLKPEDTAVYYCAAGFVYFRLRRYFWRDYWGQGTQVTVSS”: the “polyreactivity (PSR sort gate)” value is “low polyreactivity”.

“QVQLVESGGVLVQAGGSLRLSCAASGSTFYNNAMGWYRQAPGKERALVATISSGGGSTYYADSVKGRFTISRDNEKNTVYLQMNSLKPEDTAVYYCAAYVLPYGEYDYWGQGTQVTVSS”: the “polyreactivity (PSR sort gate)” value is on record as “low polyreactivity”.

As for “QVQLVESGGGLVQAGGSLRLSCAASGIIFSYNAMGWYRQAPGKERELVAAITSIGGRTYYADSVKGRFTISRDNAKNTVYLKMNSLKPEDCAVYYCAVVAAFYNSPEGDYWGQGTQVTVSS”, the “polyreactivity (PSR sort gate)” value is “low polyreactivity”.

With “QVQLVETGAGLVQAGGSLRLSCAPSGNTLGPYAKGWYRQGPGKERELVAAITWSGGITDYADSVKGRLTISRDNAKKTVYLQMNSLKPEDTAVYYCATKLTYTLTSGAYAYDYWGQGTQVTVSS”, the “polyreactivity (PSR sort gate)” value is reported as “low polyreactivity”.

Take “QVQLVESGGGLVQAGGSLRLSCAASGSTLQVNAMGWYRQAPGKETELVATISFSGGSTYYADSVKGRFTISRDNAMNTVYLQMNSLKPEETAAYYCNADSFVSWYNQFWYQATYDYWGQGTKVTVSS”: the “polyreactivity (PSR sort gate)” value is “low polyreactivity”.

Turning to “QVQLVESGGGLVHAGGRLRLSCAASGRIFGRNAMGWYRPPPGKERELVAAITKSGGRTYYADSVKGRFSISRVNAKNNVYFQMICLKPEDNAVYYCNRIVTFGWQYDFDFWGQGTQVTVSS”, the “polyreactivity (PSR sort gate)” value is recorded as “high polyreactivity”.

On to “QVQLVESGGGLVQAGGSLRLSCAASGRTFAVYAMGWYRQAPGKERELVAAISSTGGTYYADSVKGRFTISRDNAKNTVYLQMNSLKPEDTAVYYCAATFIQVVVNVQLYDYDYWGQGTQVTVSS”, for which the “polyreactivity (PSR sort gate)” value is on record as “low polyreactivity”.

Consider “QVQLVESGGGLVQAGGSLRLSCAASGSNFPSYAMGWYTKAPGEEMEFVARISRGDDSTYYADSVKGRFTISRDNAKNTVYLQMNSLKPEDTAVYYCAADYPDVVYLEYDYWGQGTQVTVSS”, for which the “polyreactivity (PSR sort gate)” value is given as “low polyreactivity”.

On to “QVQLVESGGGLVQAGGSLRLSCAASGSIFDVNAMGWYRQAPGKERELVAAISQRGTRTYYADSVKGRFTISRENAKNTVYLQMNSLKPEDTAVYYCNRGGWRQYDSWGQGTQVTVSS”, for which the “polyreactivity (PSR sort gate)” value is reported as “high polyreactivity”.

Turning to “QVQLVESGGGLVQAGGSLRLSCAASGFIFFYYAMGWYRQAPGKERELVASINWSGGRTYYADSVKGRFTISRDNAKNTVYLQMNSLKPEDTAVYYCAADRRFSTYDYWGQGTQVTVSS”, the “polyreactivity (PSR sort gate)” value is on record as “high polyreactivity”.

As to “QVQLVESGGGLVQAGGSLRISCAASGFTFQYYAMGWYRQAPGKERELVATITTSGGNTYYADSVKGRFTISRDNEKNTVYLQMNCLNPEDTAVYYCAARRYRASSRGYGYWGQGTQVTVSS”, the “polyreactivity (PSR sort gate)” value is “high polyreactivity”.

On to “QVQLVESGAGLVQAGGSLRLSCAASGSIFQPYAMGWYRQAPGKERELVAAISSSGGSTTYADSVKGRFTISRDNAKNTVYLQMNSLKPEDTADYYCAADSADDMGYWGQGTQVTVSS”, for which the “polyreactivity (PSR sort gate)” value was “low polyreactivity”.

Take “QVQLVESGGGLVQAGGSLRLSCTASGTIVPVYAMGWYRQAPGKERELVADITYTTGSTYYAVSVKGRFTISRENAKNSVYLQMNSLKPEDTAVYYCAKDFGFQSDSWGQGTQVTVSS”: the “polyreactivity (PSR sort gate)” value was “low polyreactivity”.

With “QVQLVESGGGLVQAGGILRLSCASSGNIFDRYAMGWYRQAPGKERELVAGITWSGGSTYYADSVKGRFTISRDNEKNTVYLQMNSLKPEDTAVYYCGQANYYWGQGTQVTVSA”, the “polyreactivity (PSR sort gate)” value is reported as “low polyreactivity”.

Take “QVQLVESGGGKVQAGGSLRLSCAASGRTFRWYAMGWYRQAPGKERELVAAITSSSSTNYADSVKGRFTISRDNAKNTVYLQMNSLKPEDTAVYYCAKGWNWYDLGESGYWGQGTQVTVSS”: the “polyreactivity (PSR sort gate)” value was “low polyreactivity”.

With “QVQLQESGGGMVQAGGSLRLSCAASGYISWADYKGWYRQAPGKERELVAGIGYGSTTYYADSVKGRFTISRDNAINTAYLQMNSLKPEDTAVYYCAVGWYRDTAYKYWGHGTQVTVSS”, the “polyreactivity (PSR sort gate)” value was “low polyreactivity”.

For the sequence “QVHLVESVGGLVQAGGSLRISCAASGRIFSKYAMGWYRQAPGKDRELVGAITSSTKYADSVKGRFTISRDNAKNTVYLQMHSLKPEDTAVYSCNAEFVWHTYYGADFKMDYWGQGTQVTVSS”, the “polyreactivity (PSR sort gate)” value is reported as “high polyreactivity”.

For the sequence “QVQLVESGGGLVQAGGSLRLSCAASGYILGRYAMGWYRQAPGKERELVAAITSGGSTYYADSVKGRFTISRDNAKNTVYLQMNSLKPEDTAVYYCNAFFATGVDYWGQGTQVTVSS”, the “polyreactivity (PSR sort gate)” value is listed as “high polyreactivity”.

Take “QVQLVESGGGLVQAGGSLRLSCAASGRIFDRYVMGWYRQAPGKERELVAAISQSGGGTYYADSVKGRFTISRDNAKNTVYLQMNSLNPEDTAVYYCAARGTGYHGYGYWGQGSQVTVSS”: the “polyreactivity (PSR sort gate)” value was “high polyreactivity”.

Regarding “QVQLVESGGGLVQAGGSLRLSCAASGFTLYRYAMGWYRQAPGKERELVAAISNSGGSTYYADSVKARFTISRDNAKNTVYLQMNSLKPEDTAVYYCAADPGYNVYGYYYWGQGTQVTVSS”, the “polyreactivity (PSR sort gate)” value is reported as “high polyreactivity”.

Take “QVQLVESGGGLVQAGGSLRLSCAASGRTSYTNAMGWYRQAPGKERELVAAINYSGGSTYYADSVKGRFTISRDNAKNTVYLQMNSLKPEDIAVYYCAAERYYWYTEMGYWGQGTQGTVSS”: the “polyreactivity (PSR sort gate)” value is on record as “high polyreactivity”.

For “QVQLVESGGGLVQAGGSLRISCAASGRIFRYYAMGWYRQAPGKERELVAAISNSGGRTYYADSVKRRFTISRDNAKNSVYLQMNSLKPEDTAVYYCKKAHSYRGVSDSDMGYWGQGTEVTVSS”, the “polyreactivity (PSR sort gate)” value is reported as “high polyreactivity”.

“QVQLVESGGGLVQAGGSLRLSCAASGFTFWFNAMGWYRQSRGTERELVPTIRRSGGTTYYADSVKGRFTISRDKAKNTVYLQMNSLKPEDTAVYYCAADDYYYPGTVYYFTPGYNYWGQGTQVTVSS”: the “polyreactivity (PSR sort gate)” value was “low polyreactivity”.

For the sequence “QVQLVESGGGLVQAGGSLRLSCAASGIIFLLYAMGWYRQAPGKERELVAAITNGGRTNYADSVKGRFTISRDNAKNTVYLQMNSLKPEDTAVYYCNAVLSVPDYTLFDYWGQGTQVTVSS”, the “polyreactivity (PSR sort gate)” value was “low polyreactivity”.

As for “QVQLVESGGGLVQAGGSLRLSCAASGSIFRAYAMGWYRQAPGKERELVAAISWGGGSTSYADSVKGRFTISRDNAKNTVYLQMNSLNPEDTAVYYCAARFIWPARYYSWGQGTQVTVSS”, the “polyreactivity (PSR sort gate)” value is “high polyreactivity”.

On to “QVQIVESGGRIVQAGGSLRLSCAASGSTFGWYTMGWYRQSPGKESELVATISWRGGTTYYADSVKGRFTISRDNAKNTVYLQMNSLKPEDTAVYYCAARRYRASSRGYGYWGQGTQVTVSS”, for which the “polyreactivity (PSR sort gate)” value is “high polyreactivity”.

For “QDQLVESGRGLDQAGGSLRLICAASGRIFDRYALGWYRQAPGTERELVAAISWNTGSTYYADSVKGRFTISRDNAKNTVYLQMNSLKPEDTAVYYCAAAVRPYKRQDDYWGQGTQVTVSS”, the “polyreactivity (PSR sort gate)” value is recorded as “high polyreactivity”.

Consider “QVQLVESAGGLVQAGGSLRLSCAASGSTIYPNAMGWYRQAPGKERELVAVISSGGSTYYADSVKGRFTISRDNAKNTVYLQMNSLKPEDTAVYYCADERYYFPRSYRYGYWGQGTQVTVSS”, for which the “polyreactivity (PSR sort gate)” value is “low polyreactivity”.

“QVQLVESGGGLVQAGGSLRLSCAASGSIFWVYAMGWYRQAPGKERELVAAISSSGGRTYYADSVKGRFTISRDNAKNTVYLQMNSLKPEDTAVYYCASRWKTGYNYWGQGTQVTVSS”: the “polyreactivity (PSR sort gate)” value was “high polyreactivity”.

Turning to “QVQLVESGGGLVQAGGSLLLSCAASGTTSLVNAMGSYRQAPGKERELVAAISWSGGSTYYADSVKGRFTISRANAKNTVFLQRNSLKPEDTAVYYCAAESYGYWEYDYWGQGTQVTLSS”, the “polyreactivity (PSR sort gate)” value was “high polyreactivity”.

Turning to “QVQLVESGGGLVQAGGSLRLICAASGLILKNYAMGWYRQAPGKERELVAAITRSGGSTYYADSVKGRFTISRDNAKNTVYLQMNSLKPEDTAVYDCAARNPSGKGRYDYWGQGTQVTVSS”, the “polyreactivity (PSR sort gate)” value is “high polyreactivity”.

With “LVQLVQSGGGLVQAGGTLRISSAASGSTLDWYAMGWYRQAPGKERELVAAITSGGSTYYADSVKGRFTISRDNAKNTVYLQMNSLKPEDTAVYYCAAEYYTWYYDIYDYWGQGTQVTVSS”, the “polyreactivity (PSR sort gate)” value is on record as “high polyreactivity”.

Turning to “QVQLEESGGGLVQAGGSLRLSCAASGFTFVPYAMGWYRPAPGKETEFVAALFSDGSTYYADSVKGRFTISRDNAKNTVYLQMNSLKPEDTAVYYCAAAGESSRTGHFDYWGQGTQVTVSS”, the “polyreactivity (PSR sort gate)” value is “low polyreactivity”.

For “QVQLQESGGGLVQAGGSLRLSCAASGTIFRFRYMGWHRQAPGKERELVAGINGGTTTYYADSVIGRFTISRVNAKNTVYLQMKSLKPDDTAVYNCAAGASRLTYYDYWGQGTQVTVSS”, the “polyreactivity (PSR sort gate)” value is “low polyreactivity”.

Take “QVHLVESGGGLVQARGSLRLSCAASGSTIGYNTMVWYRQAPGKERELVAAITSGGRTYYADSVKGRFTISRDYAKNTVYLQMNSLKPEDSAVYYCAAYYWWGYPENEYWGQGTQVTVSS”: the “polyreactivity (PSR sort gate)” value is on record as “high polyreactivity”.

On to “QVQLVESGAGLGQAGGSLRLSCAASGYTFPSNAMGWYRQAPGKERELVAAISSGGRTNYADSVKGRFTISRDNAKNTVYLQMNSLKPEVTAVYYCNADGGPGYPRAYDYWGPGTQVTVSS”, for which the “polyreactivity (PSR sort gate)” value is on record as “low polyreactivity”.

With “QVQLVESGGGLVQAGGSLRLSCAASGRTFRRYAMGWYRQAPGKERELVAAITNRGASTYYADSVKGRFTISRDNAKNTVYLQMNSLKPEDTAVYFCNTDPVSGLVWKGTEYDYWGQGTQVTVSS”, the “polyreactivity (PSR sort gate)” value was “low polyreactivity”.

For “QVQLVESGGGLVQAGGSLRLSCAASGIIFRAYAMGWYRQAPGKERELVAAITSRGGSTYYADSVKGRFTISRDNAKNTVYLQMNSLKPEDTAVYYCAADFTIPYWDAKFDYWGQGTQVTVSS”, the “polyreactivity (PSR sort gate)” value is given as “low polyreactivity”.

Regarding “QVQLVESGGGLVQAVGSLRLSCAASGFIFAQNARGGSRPAPGKERELVAAIYGSGVRTYYADSVKGRFTISRDNAKNTVYLQMNSLKPEDTAVYYCAKDTYLQIYQYGYWGQGTQVTVSS”, the “polyreactivity (PSR sort gate)” value is reported as “high polyreactivity”.

In the case of “QVQLVESGGGLGQAGGSLRLSCAASGRTLGIYAMGWYRPAPGTERELVAAITNGDSTHYADSVKGRFTISRDNAKNTVYLQMNSLKPEDTAVYYCAAEDHYEGYGGYYWGQGTQVTVSS”, the “polyreactivity (PSR sort gate)” value is on record as “low polyreactivity”.

On to “QVQLVESGGGLVQAGGSLRLSCAASGFTFFRYAMGWYRQAPGKERELVATITRGGSTNYADSVKGRCTISRDNAKNTDYLQMNSLQPEDTAVYYCNKDKKTPTFDYWGQGTQVTVSS”, for which the “polyreactivity (PSR sort gate)” value was “low polyreactivity”.
